Data taken from doi:10.1101/2021.04.23.441074 (bioRxiv, 2021).

Biological target: MSH2-MSH3 (purified heterodimer) (human, UniProt P43246 1-934; P20585 1-1137)
Assay: native gel or EMSA

Chain of MSH2-MSH3 (purified heterodimer) (P43246 whole entry, chain 1 of 2): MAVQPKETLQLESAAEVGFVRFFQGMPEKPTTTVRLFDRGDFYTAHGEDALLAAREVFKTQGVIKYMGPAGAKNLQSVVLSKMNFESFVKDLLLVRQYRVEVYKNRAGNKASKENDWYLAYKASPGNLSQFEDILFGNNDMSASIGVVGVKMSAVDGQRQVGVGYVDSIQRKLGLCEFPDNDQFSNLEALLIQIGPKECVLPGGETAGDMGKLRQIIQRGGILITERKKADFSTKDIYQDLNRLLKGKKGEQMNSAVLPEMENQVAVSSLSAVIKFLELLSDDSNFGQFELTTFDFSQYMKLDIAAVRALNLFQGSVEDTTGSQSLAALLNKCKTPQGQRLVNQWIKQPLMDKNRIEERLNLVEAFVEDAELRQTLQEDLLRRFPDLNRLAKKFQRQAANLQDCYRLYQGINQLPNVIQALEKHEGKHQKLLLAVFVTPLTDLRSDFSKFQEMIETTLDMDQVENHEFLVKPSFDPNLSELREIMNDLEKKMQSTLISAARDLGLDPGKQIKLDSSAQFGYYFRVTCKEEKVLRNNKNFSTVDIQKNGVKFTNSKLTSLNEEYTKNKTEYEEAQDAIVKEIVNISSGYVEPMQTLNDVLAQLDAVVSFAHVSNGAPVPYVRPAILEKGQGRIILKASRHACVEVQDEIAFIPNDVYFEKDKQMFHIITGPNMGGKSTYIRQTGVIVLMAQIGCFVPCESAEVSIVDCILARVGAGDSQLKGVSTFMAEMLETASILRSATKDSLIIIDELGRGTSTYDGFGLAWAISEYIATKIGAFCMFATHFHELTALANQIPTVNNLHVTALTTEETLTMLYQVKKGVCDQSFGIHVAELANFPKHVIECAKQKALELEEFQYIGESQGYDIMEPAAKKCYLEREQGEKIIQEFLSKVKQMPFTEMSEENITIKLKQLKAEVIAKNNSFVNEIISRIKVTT
Chain of MSH2-MSH3 (purified heterodimer) (P20585 whole entry, chain 2 of 2): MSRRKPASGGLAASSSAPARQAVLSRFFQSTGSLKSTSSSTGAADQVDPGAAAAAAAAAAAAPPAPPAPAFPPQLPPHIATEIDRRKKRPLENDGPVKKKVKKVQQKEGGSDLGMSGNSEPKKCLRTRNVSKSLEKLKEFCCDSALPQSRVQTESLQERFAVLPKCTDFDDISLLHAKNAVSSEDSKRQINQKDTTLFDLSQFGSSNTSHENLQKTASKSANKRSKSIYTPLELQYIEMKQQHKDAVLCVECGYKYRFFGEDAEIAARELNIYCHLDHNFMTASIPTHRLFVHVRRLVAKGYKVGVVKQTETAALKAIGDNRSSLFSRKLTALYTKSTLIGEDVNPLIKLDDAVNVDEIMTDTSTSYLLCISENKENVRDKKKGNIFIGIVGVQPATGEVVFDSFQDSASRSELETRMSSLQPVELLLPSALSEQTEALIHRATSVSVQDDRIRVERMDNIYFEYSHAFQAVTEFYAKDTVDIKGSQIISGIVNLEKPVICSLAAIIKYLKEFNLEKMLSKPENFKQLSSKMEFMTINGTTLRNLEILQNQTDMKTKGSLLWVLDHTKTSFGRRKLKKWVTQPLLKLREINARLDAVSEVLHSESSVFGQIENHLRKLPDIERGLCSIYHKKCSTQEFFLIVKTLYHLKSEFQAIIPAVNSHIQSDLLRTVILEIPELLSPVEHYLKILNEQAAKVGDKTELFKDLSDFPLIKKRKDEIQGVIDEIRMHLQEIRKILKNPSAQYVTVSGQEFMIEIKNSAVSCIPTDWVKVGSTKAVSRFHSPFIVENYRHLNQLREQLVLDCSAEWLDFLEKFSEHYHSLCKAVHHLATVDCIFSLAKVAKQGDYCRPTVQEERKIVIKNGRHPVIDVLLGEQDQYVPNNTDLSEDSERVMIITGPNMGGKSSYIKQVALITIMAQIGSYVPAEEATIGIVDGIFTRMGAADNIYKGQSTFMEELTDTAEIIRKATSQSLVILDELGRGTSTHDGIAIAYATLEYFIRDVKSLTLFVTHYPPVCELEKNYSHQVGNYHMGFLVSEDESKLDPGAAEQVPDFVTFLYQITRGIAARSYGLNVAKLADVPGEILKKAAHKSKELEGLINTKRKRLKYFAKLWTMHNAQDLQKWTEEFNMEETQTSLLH

B1: SMARCAD1 (purified) (enzyme, human, UniProt Q9H4L7 1-1026, looked up)
chain: MNLFNLDRFRFEKRNKIEEAPEATPQPSQPGPSSPISLSAEEENAEGEVSRANTPDSDITEKTEDSSVPETPDNERKASISYFKNQRGIQYIDLSSDSEDVVSPNCSNTVQEKTFNKDTVIIVSEPSEDEESQGLPTMARRNDDISELEDLSELEDLKDAKLQTLKELFPQRSDNDLLKLIESTSTMDGAIAAALLMFGDAGGGPRKRKLSSSSEPYEEDEFNDDQSIKKTRLDHGEESNESAESSSNWEKQESIVLKLQKEFPNFDKQELREVLKEHEWMYTEALESLKVFAEDQDMQYVSQSEVPNGKEVSSRSQNYPKNATKTKLKQKFSMKAQNGFNKKRKKNVFNPKRVVEDSEYDSGSDVGSSLDEDYSSGEEVMEDGYKGKILHFLQDASIGELTLIPQCSQKKAQKITELRPFNSWEALFTKMSKTNGLSEDLIWHCKTLIQERDVVIRLMNKCEDISNKLTKQVTMLTGNGGGWNIEQPSILNQSLSLKPYQKVGLNWLALVHKHGLNGILADEMGLGKTIQAIAFLAYLYQEGNNGPHLIVVPASTIDNWLREVNLWCPTLKVLCYYGSQEERKQIRFNIHSRYEDYNVIVTTYNCAISSSDDRSLFRRLKLNYAIFDEGHMLKNMGSIRYQHLMTINANNRLLLTGTPVQNNLLELMSLLNFVMPHMFSSSTSEIRRMFSSKTKSADEQSIYEKERIAHAKQIIKPFILRRVKEEVLKQLPPKKDRIELCAMSEKQEQLYLGLFNRLKKSINNLEKNTEMCNVMMQLRKMANHPLLHRQYYTAEKLKEMSQLMLKEPTHCEANPDLIFEDMEVMTDFELHVLCKQYRHINNFQLDMDLILDSGKFRVLGCILSELKQKGDRVVLFSQFTMMLDILEVLLKHHQHRYLRLDGKTQISERIHLIDEFNTDMDIFVFLLSTKAGGLGINLTSANVVILHDIDCNPYNDKQAEDRCHRVGQTKEVLVIKLISQGTIEESMLKINQQKLKLEQDMTTVDEGDEGSMPADIATLLKTSMGL
  binding result: binds
